In assay [1] the target is T1, human TL1A (human, UniProt O95150 72-251).
T1 construct: Antigen in SPR and ELISA; Also used here for places that print only 'TL1A' and for endogenous TL1A in human whole blood; also called TNFSF15
T1 sequence (looked up): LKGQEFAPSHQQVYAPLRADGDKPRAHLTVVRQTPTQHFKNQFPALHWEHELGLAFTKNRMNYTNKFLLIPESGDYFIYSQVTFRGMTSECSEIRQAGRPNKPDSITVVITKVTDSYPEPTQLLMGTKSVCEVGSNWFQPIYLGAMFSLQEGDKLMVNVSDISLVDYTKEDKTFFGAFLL
As to the kind of experiment: SPR, Fab format.

For assay [2], the target named is T1, human TL1A. As to the kind of experiment: SPR, Fab format, average.
The target in assay [3] is T2, Cyno TL1A (cyno, UniProt G7PRK8 72-251).
T2 sequence: T1 sequence (looked up) with F39L, I78V
Description: SPR, Fab format, average. For orientation: Surface plasmon resonance follows binding to a sensor surface in real time, without labels.

Assay [4] deals with T1, human TL1A. Description: SPR, Fab lysate, average.

Positions count from the first letter of the chain named.

The values that follow come from patent publication US20250109209A1 (ABSCI, published 2025).

By Kd is commonly meant the constant that tells how readily two partners part at equilibrium. High values mean lower affinity, low ones higher affinity.

B1: Antibody 51 (Fab format) (Fab, V domains shown)
VH: QVQLQESGPGLVRPSQTLSLTCTVSGFDIQDTYMHWVRQRPGRGLEWMGRIEPAGGHTKYNPSLKSRVTITRDTSKNQVSLRLSSVTAADTAVYYCVRSGGLPDAWGQGSLVTVSS
VL: DIQMTQSPSSLSASVGDRVTITCRASQGVEYMYWYQQKPGKAPKLLIYGASNLASGVPSRFSGSGSGTDFTFTISSLQPEDIATYYCQQWEGNPRTFGQGTKVEIK
notes: Backup lead, Fab format
Consider B1, for which, in assay [1], the binding result is “binds”.

B2: Antibody 17 (Fab format) (Fab, V domains shown)
VH: B1 VH with I29M, Q30G, G55A, A105V
VL: B1 VL
notes: High priority lead, Fab format
On to B2, for which the Kd was under 1000 pM in assay [1], 570 pM in assay [2], 330 pM in assay [3] and 570 pM in assay [4].

B3: Antibody 2 (Fab format) (Fab, V domains shown)
VH: B1 VH with F27L, I29P, Q30D, R98I, A105V
VL: B1 VL with Q27S, G28S, E30S, G49A, A50T
notes: as for B2
As to B3, the Kd was found to be 200 pM in assay [2], 940 pM in assay [3] and 200 pM in assay [4].

B4: Antibody 1 (Fab format) (Fab, V domains shown)
VH: B1 VH with V97A, R98S, L102M, A105L
VL: B1 VL
notes: High priority lead, Fab format; also called Lead #1
B4: the Kd in assay [2], in assay [3] and in assay [4] was 170 pM throughout.

B5: Antibody 39 (Fab format) (Fab, V domains shown)
VH: B1 VH
VL: B1 VL with Q27S, G28S, E30S, G49A, A50T
notes: Backup lead, Fab format
For B5, in assay [1], the binding result is listed as “binds”.

B6: Antibody 9 (Fab format) (Fab, V domains shown)
VH: B1 VH
VL: B1 VL with E30G, G49S
notes: as for B2
Consider B6, for which the Kd is under 1000 pM in assay [1], 430 pM in assay [2], 1990 pM in assay [3] and 430 pM in assay [4].

B7: Antibody 16 (Fab format) (Fab, V domains shown)
VH: B1 VH with I29M, D31S, A105V
VL: B1 VL
notes: as for B2
In the case of B7, the Kd is under 1000 pM in assay [1], 510 pM in assay [2], 320 pM in assay [3] and 510 pM in assay [4].

B8: Antibody 10 (Fab format) (Fab, V domains shown)
VH: B1 VH with F27L, I29P, Q30D, R98I, A105V
VL: B1 VL
notes: as for B2
As for B8, the Kd in assay [1] is under 1000 pM; in assay [2], 480 pM; in assay [3] it was 1830 pM; in assay [4] it was 480 pM.

B9: Antibody 20 (Fab format) (Fab, V domains shown)
VH: B1 VH with G55S, V97A, L102M, A105M
VL: B1 VL with E30M
notes: as for B2
With B9, the Kd in assay [1] is under 1000 pM; in assay [2], 760 pM; in assay [3], 1280 pM; in assay [4] it was 760 pM.

B10: Antibody 14 (Fab format) (Fab, V domains shown)
VH: B1 VH with F27L, I29P, Q30D, R98I, A105V
VL: B1 VL with V29I, E30Y
notes: as for B2
In the case of B10, the Kd is under 1000 pM in assay [1], 700 pM in assay [2], 4250 pM in assay [3] and 700 pM in assay [4].

B11: Antibody 41 (Fab format) (Fab, V domains shown)
VH: B1 VH with Q30T, A105V
VL: B1 VL with Q27S, G28S, E30S, G49S
notes: Backup lead, Fab format
Regarding B11, the binding result in assay [1] was “binds”.

B12: Antibody 8 (Fab format) (Fab, V domains shown)
VH: B1 VH with I29M, D31S, A105V
VL: B1 VL with Q27S, G28S, E30S
notes: as for B2
For B12, the Kd came to 380 pM in assay [2], 3260 pM in assay [3] and 380 pM in assay [4].

B13: Antibody 27 (Fab format) (Fab, V domains shown)
VH: B1 VH
VL: B1 VL with E30R, G49A, A50T
notes: Backup lead, Fab format
Regarding B13, the binding result in assay [1] is listed as “binds”.

B14: Antibody 33 (Fab format) (Fab, V domains shown)
VH: B1 VH
VL: B1 VL with G49A, A50T
notes: Backup lead, Fab format
As to B14, the binding result in assay [1] is recorded as “binds”.

B15: Antibody 3 (Fab format) (Fab, V domains shown)
VH: B1 VH
VL: B1 VL with E30R
notes: as for B2
As for B15, the dissociation constant (Kd) in assay [2] amounted to 310 pM; in assay [3] it was 620 pM; in assay [4] it was 310 pM.

B16: Antibody 6 (Fab format) (Fab, V domains shown)
VH: B1 VH with I29M, Q30A, A105M
VL: B1 VL with G49S
notes: as for B2
In the case of B16, the dissociation constant Kd in assay [2] worked out at 410 pM; in assay [3], 260 pM; in assay [4], 410 pM.

B17: Antibody 13 (Fab format) (Fab, V domains shown)
VH: B1 VH with I29Y, E52D, G55S, V97A, R98V, L102M, A105V
VL: B1 VL with G49A, A50T
notes: as for B2
B17: the dissociation constant (Kd) is under 1000 pM in assay [1], 430 pM in assay [2], 340 pM in assay [3] and 430 pM in assay [4].

B18: Antibody 34 (Fab format) (Fab, V domains shown)
VH: B1 VH with F27L, I29P, Q30D, R98I, A105V
VL: B1 VL with V29I, E30Y, G49A, A50T
notes: Backup lead, Fab format
With B18, in assay [1], the binding result is on record as “binds”.

B19: Antibody 12 (Fab format) (Fab, V domains shown)
VH: B1 VH with Q30T, A105V
VL: B1 VL with G49S
notes: as for B2
Consider B19, for which the Kd is under 1000 pM in assay [1], 430 pM in assay [2], 1290 pM in assay [3] and 430 pM in assay [4].

B20: Antibody 4 (Fab format) (Fab, V domains shown)
VH: B1 VH with I29M, Q30A, A105M
VL: B1 VL with Q27S, G28S, E30S
notes: as for B2
For B20, the Kd in assay [2] was determined as 330 pM; in assay [3] it was 160 pM; in assay [4], 330 pM.

B21: Antibody 42 (Fab format) (Fab, V domains shown)
VH: B1 VH with Q30T, A105V
VL: B1 VL with E30G
notes: Backup lead, Fab format
Consider B21, for which the binding result in assay [1] is listed as “binds”.

B22: Antibody 18 (Fab format) (Fab, V domains shown)
VH: B1 VH with I29M, Q30G, L102M, A105V
VL: B1 VL with Q27S, G28S, E30S, G49Y
notes: as for B2
With B22, the Kd in assay [1] was under 1000 pM; in assay [2] it was 670 pM; in assay [3], 1280 pM; in assay [4] it was 670 pM.

B23: Antibody 15 (Fab format) (Fab, V domains shown)
VH: B1 VH
VL: B1 VL with V29I, E30Y
notes: as for B2
Consider B23, for which the Kd in assay [1] was under 1000 pM; in assay [2], 500 pM; in assay [3], 1810 pM; in assay [4] it was 500 pM.

B24: Antibody 5 (Fab format) (Fab, V domains shown)
VH: B1 VH with I29M, G55S, A105V
VL: B1 VL with E30M
notes: as for B2
For B24, the equilibrium dissociation constant (Kd) was found to be 330 pM in assay [2], 790 pM in assay [3] and 330 pM in assay [4].

B25: Antibody 53 (Fab format) (Fab, V domains shown)
VH: B1 VH with G55S, V97A, L102M, P103M, A105R
VL: B1 VL with E30R
notes: Backup lead, Fab format
B25: in assay [1], the binding result is “binds”.

B26: Antibody 24 (Fab format) (Fab, V domains shown)
VH: B1 VH
VL: B1 VL with E30G, G49A, A50T
notes: Backup lead, Fab format
As for B26, the binding result in assay [1] is given as “binds”.

B27: Antibody 11 (Fab format) (Fab, V domains shown)
VH: B1 VH with I29M, Q30G, L102M, A105V
VL: B1 VL with G49S
notes: as for B2
B27: the Kd in assay [1] is under 1000 pM; in assay [2], 480 pM; in assay [3], 380 pM; in assay [4] it was 480 pM.

B28: Antibody 19 (Fab format) (Fab, V domains shown)
VH: B1 VH with Q30T, A105V
VL: B1 VL with G49Y
notes: as for B2
Take B28: the Kd in assay [1] was under 1000 pM; in assay [2], 720 pM; in assay [3], 5140 pM; in assay [4], 720 pM.

B29: Antibody 30 (Fab format) (Fab, V domains shown)
VH: B1 VH
VL: B1 VL with Q27S, G28S, E30S, G49S
notes: Backup lead, Fab format
Consider B29, for which the binding result in assay [1] is listed as “binds”.

B30: Antibody 45 (Fab format) (Fab, V domains shown)
VH: B1 VH with Q30E, G55S, V97A, R98I, L102V, A105V
VL: B1 VL with Q27S, G28S, E30S, G49A, A50T
notes: Backup lead, Fab format
Take B30: the binding result in assay [1] is listed as “binds”.

B31: Antibody 7 (Fab format) (Fab, V domains shown)
VH: B1 VH with I29M, Q30G, G55A, A105I
VL: B1 VL
notes: as for B2
On to B31, for which the Kd is 430 pM in assay [2], 1630 pM in assay [3] and 430 pM in assay [4].
